Measured values as given in patent US20040185113A1, “Fine inorganic particles having drug included therein, method for preparation thereof and pharmaceutical preparation comprising fine inorganic particles having drug included therein” (priority 2001, published 2004).

Assay: G-CSF release test and stability of G-CSF in buffer solution at room temperature
Assay type: physicochemical
Conditions: 1% BSA/Tris-HCl (pH 7.2), ELISA, FIG. 4
Protocol: Six hundred fifty μl of 5M CaCl2 was admixed with 250 μl of 500 μg/ml G-CSF with stirring. Then 2.5 ml of 1M Na2CO3 was added and stirred for 10 minutes to prepare CaCO3 particles. Five ml of H2O was added to the particles, and the mixture was centrifuged at 2,000 rpm for 5 min to remove the supernatant. To the resultant precipitate, 12.5 ml of H2O was added, and 1 ml of the mixture was taken into a 2.0 ml test tube. The test tube and content was centrifuged at 2,000 rpm for 5 min to remove the supernatant which was used for ELISA. To the resultant precipitate, 1 ml of 1% BSA/Tris—HCl (pH 7.2) was added and shaken at room temperature. The mixture was centrifuged every 24 hours at 2,000 rpm for 5 min to collect the supernatant and to the resultant precipitate 1 ml of 1% BSA/Tris—HCl (pH 7.2) was added again, and this operation was continued for 7 days. The last precipitate was dissolved with hydrochloric acid and used for ELISA. G-CSF was assayed using ELISA Kit manufactured by IBL Co. and the total (cumulative) amount of G-CSF released from the G-CSF-encapsulating CaCO3 preparation was shown. […] A part of the mixture was collected every 24 hours, and the amount of G-CSF was determined by ELISA to examine the stability of G-CSF at room temperature.

B1: free G-CSF: granulocyte colony-stimulating factor (Chugai Pharmaceutical) in 1% BSA/Tris-HCl solution, control (protein, UniProt P09919 31-207, looked up)
Granulocyte …: TPLGPASSLPQSFLLKCLEQVRKIQGDGAALQEKLVSECATYKLCHPEELVLLGHSLGIPWAPLSSCPSQALQLAGCLSQLHSGLFLYQGLLQALEGISPELGPTLDTLQLDVADFATTIWQQMEELGMAPALQPTQGAMPAFASAFQRRAGGVLVASHLQSFLEVSYRVLRHLAQP
In the case of B1, the “stability of G-CSF” value is reported as “unstableness”.
